Measurements taken from patent US20250197513A1 (University of Texas, published 2025).

T1: recombinant OSMR protein (Sino Biologicals, 11226-H08H), extracellular domain of OSMR (UniProt Q99650 28-740)
T1 construct: extracellular domain; also called OSMR antigen
T1 sequence (looked up): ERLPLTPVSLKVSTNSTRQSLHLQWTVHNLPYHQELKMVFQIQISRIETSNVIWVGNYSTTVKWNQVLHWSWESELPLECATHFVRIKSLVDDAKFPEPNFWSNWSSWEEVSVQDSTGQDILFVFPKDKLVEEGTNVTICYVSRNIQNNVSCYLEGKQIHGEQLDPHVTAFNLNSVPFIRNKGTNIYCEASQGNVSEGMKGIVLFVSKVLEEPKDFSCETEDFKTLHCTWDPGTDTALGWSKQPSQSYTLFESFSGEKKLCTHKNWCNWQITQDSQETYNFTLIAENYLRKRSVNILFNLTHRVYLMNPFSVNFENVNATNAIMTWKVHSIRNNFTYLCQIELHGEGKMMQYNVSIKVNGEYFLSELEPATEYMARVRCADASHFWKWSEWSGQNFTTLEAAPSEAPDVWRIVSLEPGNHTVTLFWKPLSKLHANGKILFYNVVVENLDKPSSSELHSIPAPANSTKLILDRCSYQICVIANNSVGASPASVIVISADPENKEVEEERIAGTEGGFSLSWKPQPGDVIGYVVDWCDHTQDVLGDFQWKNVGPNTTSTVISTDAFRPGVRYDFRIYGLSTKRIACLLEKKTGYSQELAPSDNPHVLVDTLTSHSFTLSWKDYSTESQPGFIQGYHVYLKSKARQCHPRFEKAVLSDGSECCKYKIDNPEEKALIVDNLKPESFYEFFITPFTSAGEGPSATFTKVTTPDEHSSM


Tests used:
[1] = target: the molecule itself; test: dimerization assay (cross-linking, immunoprecipitation) after OSM stimulation
Method: Dimerization assay: Dimerization assay was performed as mentioned previously (Bublil et al., 2010; Turk and Chapkin, 2015) with some modifications. […] The […] were incubated with non-permeable cross-linking reagent, 3 mM bis (sulphosuccinimidyl) suberate [BS3 (Pierce)], cross-linking reagent on ice for 30 min and subsequently quenched with 250 mM Glycine. The cells were washed with ice cold PBS and cells were lysed using RIPA buffer as mentioned earlier.

[2] = target: T1, recombinant OSMR protein (Sino …); test: screening of full-length IgG1 clones on recombinant OSMR extracellular domain

| binding result [2] | Binder | binding result [1] |
| --- | --- | --- |
| – | OSMR on human ovarian cancer cells (HEYA8, OVCAR4, A2780) (receptor, UniProt Q99650 28-979, looked up, whole, on cells; also called Oncostatin M receptor; OMSR receptors) ERLPLTPVSLKVSTNSTRQSLHLQWTVHNLPYHQELKMVFQIQISRIETSNVIWVGNYSTTVKWNQVLHWSWESELPLECATHFVRIKSLVDDAKFPEPNFWSNWSSWEEVSVQDSTGQDILFVFPKDKLVEEGTNVTICYVSRNIQNNVSCYLEGKQIHGEQLDPHVTAFNLNSVPFIRNKGTNIYCEASQGNVSEGMKGIVLFVSKVLEEPKDFSCETEDFKTLHCTWDPGTDTALGWSKQPSQSYTLFESFSGEKKLCTHKNWCNWQITQDSQETYNFTLIAENYLRKRSVNILFNLTHRVYLMNPFSVNFENVNATNAIMTWKVHSIRNNFTYLCQIELHGEGKMMQYNVSIKVNGEYFLSELEPATEYMARVRCADASHFWKWSEWSGQNFTTLEAAPSEAPDVWRIVSLEPGNHTVTLFWKPLSKLHANGKILFYNVVVENLDKPSSSELHSIPAPANSTKLILDRCSYQICVIANNSVGASPASVIVISADPENKEVEEERIAGTEGGFSLSWKPQPGDVIGYVVDWCDHTQDVLGDFQWKNVGPNTTSTVISTDAFRPGVRYDFRIYGLSTKRIACLLEKKTGYSQELAPSDNPHVLVDTLTSHSFTLSWKDYSTESQPGFIQGYHVYLKSKARQCHPRFEKAVLSDGSECCKYKIDNPEEKALIVDNLKPESFYEFFITPFTSAGEGPSATFTKVTTPDEHSSMLIHILLPMVFCVLLIMVMCYLKSQWIKETCYPDIPDPYKSSILSLIKFKENPHLIIMNVSDCIPDAIEVVSKPEGTKIQFLGTRKSLTETELTKPNYLYLLPTEKNHSGPGPCICFENLTYNQAASDSGSCGHVPVSPKAPSMLGLMTSPENVLKALEKNYMNSLGEIPAGETSLNYVSQLASPMFGDKDSLPTNPVEAPHCSEYKMQMAVSLRLALPPPTENSSLSSITLLDPGEHYC | binds |
| binds | H14 monoclonal antibody (antibody, V domains shown, also called H14 mAb) VH: QVQLVQSGAEVKKPGSSVKVSCKASGGTFSSYAISWVRQAPGQGLEWMGGIIPIFGTANYAQKFQGRVTITADESTSTAYMELSSLRSEDTAVYYCAREATPFMILGAFDIWGQGTMVIVSS VL: not shown | – |
| binds | H13 monoclonal antibody (antibody, V domains shown, also called H13 mAb) VH: QVQLVQSGAEVKKPGASVKVSCKVSGYSFSSHGISWVRQAPGQGLEWMGWISAYNGNTNYAQNLQGRVRMTTDTSTNTAHMELRSLRSDDTAVYYCARDQDEANWNNNYYFDYWGQGTLVTVSS VL: NFMLTQPHSVSESPGKTVTISCTGSSGSIASKYVQWYQQRPGSAPTSVIYEDNQRPSGVPDRFSGSIDRSSNSASLTISGLKTEDEADYHCQSYDSANRVVFGGGTKVTVL | – |
| binds | B02 monoclonal antibody (antibody, V domains shown, also called B02 mAb) VH: QVELQESGSGLVKPSQTLSLTCAVSGGSISSGGYSWSWIRQPPGKGLEWIGYIYHSGSTYYNPSLKSRVTISVDRSKNQFSLKLSSVTAADTAVYYCARELGYCSSTSCPWGAFDIWGQGTLVSVSS VL: QAVVTQPPSVSAAPGQKVTISCSGSSSNIGNNYVSWYQQLPGTAPKLLIYDNNKRPSGIPDRFSGSKSGTSATLGITGLQTGDEADYYCGTWDSSLSAVVFGGGTQLTVL | – |
| binds | B03 monoclonal antibody (antibody, V domains shown, also called B03 mAb) VH: QVQLVESGGGVVRPGGSLRLSCAASGFTFDDYGMSWVRQAPGKGLEWVSGINWNGGSTGYADSVKGRFTISRDNAKNSLYLQMNSLRAEDTALYHCARVNYDSSGLRGAFDIWGQGTMVIVSS VL: DIVMTQSPSSLSASVGDRVTITCQASQDISNYLNWYQQKPGKAPKLLIYDASNLETGVPSRFSGSGSGTDFTFTISSLQPEDIATYYCQQYDNLPITFGQGTRLEIK | – |
| binds | B07 monoclonal antibody (antibody, V domains shown, also called B07 mAb) VH: QVQLVESGGGVVRPGGSLRLSCAASGFTFDDYGMSWVRQAPGKGLEWVSGINWNGGSTGYADSVKGRFTISRDNAKNSLYLQMNSLRAEDTALYHCARVNYDSSGLRGAFDIWGQGTMVTVSS VL: NIQMTQSPSSLSASVGDRVTITCQASQYISNSLNWYQQKPGKAPNLLLYDATNLEPGVPSRFSGSGSRTDFTLTISSLQPEDIATYYCQQYHNLPPTFGQGTRLEIK | – |
| binds | B04 monoclonal antibody (antibody, V domains shown, also called B04 mAb) VH: EVQLVQSGGGVVQPGRSLRLSCAASGFTFSSYAMHWVRQAPGKGLEWVAVISYDGSNKYYADSVKGRFTISRDNSKNTLYLQMNSLRAEDTAVYYCARESGVSGDYYYYGMDVWGQGTMVTVSS VL: AIQLTQSPSSLSASVGDRVTITCQASQDIKNYLNWYQQRPGKAPKLLIYDASNLETGVPSRFSGGGSGTDFTFTISSLQPEDIATYYCQHYDSLPITFGQGTRLEIK | – |
| binds | H16 monoclonal antibody (antibody, V domains shown, also called H16 mAb) VH: QVQLLQSGAEVKKPGSSVKVSCKASGGTFSSYAISWVRQAPGQGLEWMGGIIPIFGTANYAQKFQGRVTITADESTSTAYMELSSLRSEDTAVYYCASSYYGSGTTWFDPWGQGTLVTVSS VL: not shown | – |
| binds | B01 monoclonal antibody (antibody, V domains shown, also called B01 mAb) VH: QVQLVQSGAEVKKPGASVKVSCKASGYSFTSYFIHWVRQAPGQGLEWMGIINPAGGNTNYAQRFQGRVTMTRDTSTSTVYMELSSLRSDDTAVYYCARDKDYGEGAFDLWGQGTMVSVSS VL: QSALTQPPSVSGAPGQRVTISCTGSSSNIGAGYDVHWYQQLPGTAPKLLIYGNSNRPSGVPDRFSGSKSGTSASLAITGLQAEDEADYYCQSYDSSLSGWVFGGGTKVTVL | – |
| binds | H09 monoclonal antibody (antibody, V domains shown, also called H09 mAb) VH: EVQLVQSGAEVKKPGASVKVSCKASGYTFTGYYMHWVRQAPGHGLEWMGWINPNSGGTNYAQKFQGRVTMTRDTSISTAYMELSGLRSDDTAVYYCARDKGAWSGSYPGYNWFDPWGQGTLVTVSS VL: QAVVTQPPSASGTPGQRVTISCSGSSSTIGTNPVNWYRHLPGTAPKLLIYSNNQRPSGVPDRVSGSKSGTSASLAISGLQSEDEADYYCATLDDSLNGYVFGTGTKVTVL | – |
| binds | H12 monoclonal antibody (antibody, V domains shown, also called H12 mAb) VH: EVQLVQSGAEVKKPGSSVKVSCKTSGGTFSSYAISWVRQAPGQGLEWMGGIIPISGTANYPQKLQGRVTITADESTSTAYMELSSLRSEDTAMYYCARGDYCNGGSCSYTNYYGMDVWGQGTTVIVSS VL: QSALTQPPSVSVAPGKTAMITCGGTNIRSQNVHWYQQKPGQAPVLVIYWDSSRPSGIPERISGSNSGSTATLTISRVEAGDEADYYCQVWDATRDHVVFGGGTKVTVL | – |
| binds | H11 monoclonal antibody (antibody, V domains shown, also called H11 mAb) VH: EVQLVQSGPEVRKPGASVQISCKASGYTFTTSYIHWVRQAPGQGLEWLGLVNPNDGSTTYTQNFQGRVTMTSDTSTSTVYMELSRVTYADTAVYYCAKDIRDYVWGTYRYESAFDIWGQGTTVTVSS VL: QAVVTQPPSVSVSPGQTASITCSGDKLGDKYVSWYQQKPGQPPILVMYQDNRRPSGIPERFSGSNSGNTATLTISGTQAMDEADYYCQTWDSSTASYVFGTGTKVTVL | – |
| binds | H10 monoclonal antibody (antibody, V domains shown, also called H10 mAb) VH: QVQLVQSGAEVKKPGASVKVSCKASGYTFTSYYMHWVRQAPGQGLEWMGIINPSGGSTSYAQKFQGRVTMTRDTSTSTVYMELSSLRSEDTAVYYCARGTTYDAFDIWGQGTTVSVSS VL: not shown | – |
| binds | B06 monoclonal antibody (antibody, V domains shown, also called B06 mAb) VH: QVQLVESGGGLVQPGRSLRLSCAASGFTFDDYAMHWVRQAPGKGLEWVSGISWNSGSIGYADSVKGRFTISRDNAKNSLYLQMNSLRAEDTALYYCAKDITSSGWYWFDYWGQGTLVTVSS VL: not shown | – |
